Columns and labels:
[1] = biological target: C5a receptor (C5aR; CD88), mouse, on peritoneal macrophages (mouse) (UniProt P30993); test: cell-based or functional assay
[2] = biological target: T1, CXC-chemokine receptor 4 (CXCR4), mouse, on peritoneal macrophages (mouse, UniProt P70658 1-359); test: FRET, acceptor photobleaching, labelled antibodies on P. gingivalis-challenged mouse macrophages
T1 construct: whole, on cells
Method: (§1) Upon stimulation for 10 min at 37° C. with P. gingivalis, mouse macrophages were labeled with a mixture of Cy3-conjugated (donor) and Cy5-conjugated (acceptor) antibodies, as indicated in FIG. 4I. In additional experiments shown in FIG. 4I, FITC-labeled P. gingivalis was used as donor and TRITC-labeled receptors served as acceptors. The cells were washed and fixed, and energy transfer between various donor-acceptor pairs was calculated from the increase in donor fluorescence after acceptor photobleaching (REF 9, 14). […] The conjugation of antibodies to Cy3 or Cy5 was performed using kits from Amersham Biosciences.

[3] = biological target: T2, TLR5, mouse, on peritoneal macrophages (mouse, UniProt Q9JLF7 27-859); test: FRET, acceptor photobleaching, labelled antibodies on P. gingivalis-stimulated mouse macrophages
T2 construct: whole, on cells; Negative control in FRET; detected with antibody clone 85B152.5; also called Toll-like receptor 5
T2 sequence (Q9JLF7 27-859): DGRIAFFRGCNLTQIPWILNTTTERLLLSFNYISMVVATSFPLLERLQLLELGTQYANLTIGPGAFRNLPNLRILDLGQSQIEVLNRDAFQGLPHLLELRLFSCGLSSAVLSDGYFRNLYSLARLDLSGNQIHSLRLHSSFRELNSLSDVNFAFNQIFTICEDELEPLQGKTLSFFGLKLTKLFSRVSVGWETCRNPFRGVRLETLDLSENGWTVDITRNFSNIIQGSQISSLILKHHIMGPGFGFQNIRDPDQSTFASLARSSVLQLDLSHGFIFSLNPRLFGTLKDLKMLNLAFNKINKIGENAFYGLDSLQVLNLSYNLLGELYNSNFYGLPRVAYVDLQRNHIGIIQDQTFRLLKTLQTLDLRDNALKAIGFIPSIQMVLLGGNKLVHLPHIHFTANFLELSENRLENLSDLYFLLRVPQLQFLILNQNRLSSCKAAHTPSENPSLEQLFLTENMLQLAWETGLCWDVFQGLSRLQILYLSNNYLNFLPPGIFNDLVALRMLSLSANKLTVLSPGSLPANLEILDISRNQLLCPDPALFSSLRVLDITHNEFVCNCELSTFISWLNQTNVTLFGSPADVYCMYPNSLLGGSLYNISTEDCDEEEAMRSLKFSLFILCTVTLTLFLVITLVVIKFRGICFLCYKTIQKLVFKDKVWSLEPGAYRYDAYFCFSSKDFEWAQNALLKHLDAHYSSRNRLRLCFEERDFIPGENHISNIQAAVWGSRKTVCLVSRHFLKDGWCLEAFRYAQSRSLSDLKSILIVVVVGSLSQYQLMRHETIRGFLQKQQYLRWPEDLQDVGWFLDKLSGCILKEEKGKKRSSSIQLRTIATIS
Method: as §1

T1 sequence (P70658 whole entry): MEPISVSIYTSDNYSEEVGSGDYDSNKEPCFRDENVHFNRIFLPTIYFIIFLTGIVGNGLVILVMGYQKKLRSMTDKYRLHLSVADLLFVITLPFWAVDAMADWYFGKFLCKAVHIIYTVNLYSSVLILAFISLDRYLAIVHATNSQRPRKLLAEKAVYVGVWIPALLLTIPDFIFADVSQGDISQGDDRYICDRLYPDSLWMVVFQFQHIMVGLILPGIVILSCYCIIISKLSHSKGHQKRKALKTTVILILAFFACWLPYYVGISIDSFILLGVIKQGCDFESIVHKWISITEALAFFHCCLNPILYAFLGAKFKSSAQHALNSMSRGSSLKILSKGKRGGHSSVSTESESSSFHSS

## Mouse C5a (from UniProt P06684 679-755) (ligand)
[1]
  intracellular cAMP in P. gingivalis-stimulated mouse macrophages: > 3 fold

B1: C5a receptor (C5aR; CD88), mouse, on peritoneal macrophages (receptor, UniProt P30993 1-351, looked up)
chain: MDPIDNSSFEINYDHYGTMDPNIPADGIHLPKRQPGDVAALIIYSVVFLVGVPGNALVVWVTAFEARRAVNAIWFLNLAVADLLSCLALPVLFTTVLNHNYWYFDATACIVLPSLILLNMYASILLLATISADRFLLVFKPIWCQKVRGTGLAWMACGVAWVLALLLTIPSFVYREAYKDFYSEHTVCGINYGGGSFPKEKAVAILRLMVGFVLPLLTLNICYTFLLLRTWSRKATRSTKTLKVVMAVVICFFIFWLPYQVTGVMIAWLPPSSPTLKRVEKLNSLCVSLAYINCCVNPIIYVMAGQGFHGRLLRSLPSIIRNALSEDSVGRDSKTFTPSTTDTSTRKSQAV
notes: whole, on cells; In FRET it was detected with a dye-labelled mouse-specific monoclonal antibody (clone 20/70); also called complement C5a receptor
[2]
  binding result: binds
[3]
  binding result: no binding
